According to patent publication US8063014B2, “Self-assembly of peptide-amphiphile nanofibers under physiological conditions” (Northwestern University, priority 2002, dated 2011):
Non-standard residues stand in square brackets, D forms with d. No end group written: not given here. *: point of attachment. C16 alkyl = N-terminal C16 alkyl tail, CCCCCCCCCCCCCCCC*; pS = N[C@@H](COP(=O)(O)O)C(=O)O

Columns and labels:
[1] = Gelation on addition of metal salts (vial inversion); type: physicochemical; settings: for gelation properties, KCl / gelation properties, BaCl2 / gelation properties, CaCl2 / gelation properties, GdCl3 / gelation properties, ZnBr2 / gelation properties, Cu(ClO4)2 / gelation properties, MgCl2: PA 10 mg/ml (roughly 8 mM); for gelation properties, BaCl2 / gelation properties, CaCl2 / gelation properties, GdCl3 / gelation properties, ZnBr2 / gelation properties, Cu(ClO4)2 / gelation properties, MgCl2: salt 20 mM; for gelation in the presence of KCl or NaCl / result of addition of 200 mM of KCl: 10 mM PA solution; for gelation in the presence of KCl or NaCl: salt concentrations up to 6M; for minimal amount of CA+2 and Gd+3 ions needed for the gelation: titration
Protocol: 100 μl of 10 mg/ml solution of peptide-amphiphile 20 was treated with 1M CaCl2 (adjusted to pH 6) drop wise in 1 μl increments. The solutions were shaken after each addition of the CaCl2 solution in order to obtain better diffusion of the divalent metal ions. Gelation was immediate. […] This calcium induced self-assembly may be particularly useful for medical applications where formation of a gel at physiological pH is desired. Trivalent metal cations can also be used for gelation.
To determine the relative number of metal ions necessary for gelation of the PAs, titration experiments were performed with PA molecules 26 and 27. […] (See Table 3, below). […] None of the negatively charged peptide-amphiphiles except molecule 32 formed gels in the presence of KCl at a ratio 1 molecule of PA per 20 molecules of KCl.
(§1) The synthesis of the peptide amphiphiles illustrates in examples 19-22 was performed using a standard synthesis scheme described elsewhere, herein, and as further available in the literature. Regarding gelation and with reference to the data of Table 3, […] volumes of PA solutions at concentrations 10 mg/ml (approximately 8 mM), pH 7.5 were mixed with 1 M solutions of NaCl, KCl, MgCl2, CaCl2, BaCl2, ZnBr2, […], Gd^+3 and Cu(ClO4)2. The amount of polyvalent ions added to the solutions varied from 0.5 to 5 metal ions per molecule of PA. For monovalent metal ions the maximum concentration of 6 M of metal ions per 10 mM of PA molecules has been tested. The solutions of the metal salts were added to the PA solutions by micropeppetors, the solutions were stirred briefly, in order to obtain better mixing of the components. The formation of self-supporting gels was examined by flipping of the vials up side down. In order to test the ability of cell compatible solutions to induce a gelation of PAs equal amounts 10 mM PA solutions were mixed with following formulations: MEM-α, DMEM containing 10% of fetal bovine serum, PBS without Ca^+2 and Mg^+2 and Hank's solution without Ca^+2 and Mg^+2 (Gibco). The ability of the above solutions to induce formation of the PAs was examined visually by flipping the vials up side down.

[2] = Mineralization of PA nanofibers with CaCl2 and Na2HPO4 on TEM grid
Protocol: To investigate the mineralization properties of PA nanofibers of this invention, the material was assembled and mineralized directly on a holey carbon coated TEM grid—to allow study of the dynamics of the mineralization process while minimizing artifacts of TEM sample preparation. To prepare samples, a drop of aqueous PA (1 mg/ml) was mounted on the holey grid and the self-assembly of the PA was induced in an atmosphere of HCl vapor. The grids were immersed in aqueous iodine to oxidize the cysteine thiol groups to disulfides. After rinsing with distilled water, the PA coated grids were treated with 5 μl of 10 mM CaCl2 on one side and 5 μl of 5 mM Na2HPO4 on the other side. The two solutions are able to mix only by passing through the holes in the carbon support.
In a second control, a PA was prepared in which phosphoserine was replaced by serine and treated as above with calcium and phosphate.

[3] = Solubility, pH-dependent precipitation and gelation in water; type: physicochemical
Protocol: After synthesis (see, example 10), the PA of FIG. 1 (characterized by ^1H NMR and matrix-assisted laser desorption/ionization time-of-flight mass spectrometry (MALDI-TOF MS): matrix ion [M−H]^−1=1333) was treated with dithiothreitol (DTT) at a pH of 8 to reduce all cysteine residues to free thiols. […] However, upon acidification of the solution below pH 4 the material rapidly becomes insoluble. Solutions more concentrated than 2.5 mg/ml form birefringent gels in water that are self-supporting upon inversion of the container. […] Negatives were digitized in the Umax PowerLook scanner with resolution 1200 dpi. The average thickness of the PA fibers was determined by two different procedures. First the Fourier transform of the images and following measurements of the distances between the peaks were performed in the NIH Image […] program. The second approach applied was averaging technique based on the cross-correlation method, widely used in single particle reconstruction using the EMAN […] program. For each data set 1200-1300 individual boxes were selected.
Several PAs with basic amino acids that can self-assemble at alkaline pH and also mixed systems, in which oppositely charged PAs self-assemble at neutral pH, were prepared. For this purpose PA compounds 22-25 were prepared by standard solid phase peptide synthesis followed by alkylation with the C16 fatty acid, palmitic acid. See Table 2, FIG. 10b (PA 22) and FIGS. 10c-e (PAs 23-25). The peptides thus prepared were characterized by electrospray mass spectroscopy and found to correspond to their respective expected masses.
Solutions of each compound of example 6 were prepared at a concentration of 0.1 mg/m1 at neutral pH.

[4] = Gelation on mixing with cell culture media, PBS or Hank's solution; type: physicochemical; settings: for gel formation on mixing with equal amounts of cell culture media: 10 mM PA solution in water; for gel formation on mixing with PBS and Hank's solutions depleted by Ca2+ and Mg2+: PA solution
Text: One potential application of the peptide-amphiphile self-assembled gels is in the area of tissue engineering, in particular the formation of artificial extracellular matrices and cell delivery systems. The results of this example show PA self-assembly in situ and in vitro cell culture systems. Body fluids as well as cell culture media contain significant amounts inorganic cations. It was presumed that the peptide amphiphiles would form a gel upon mixing with these liquids.
as §1

[5] = KCl concentration up to 6M (molecules 26 and 27)

Row | Substance | gelation properties, KCl ([1]; KCl 200 mM, pH 7.5) | gelation properties, BaCl2 [1] | gelation properties, CaCl2 [1] | gelation properties, GdCl3 [1] | gelation properties, ZnBr2 [1] | further results
1 | 29 (CCCCGGGSRGD-OH; not fully specified (N-terminus); cysteine pairing not given here) [compound 29] | Liquid | gel | gel | gel | gel | –
2 | Alkyl-C4G3SRGD-COOH ({C16 alkyl}-CCCCGGGSRGD-OH; cysteine pairing not given here) [PA 29] | – | – | – | – | – | mineral observed on the fibers by TEM ([2]; 20 minutes of incubation with calcium and phosphate): only amorphous mineral deposit; mineral observed on the fibers by TEM ([2]; 30 minutes of incubation with calcium and phosphate): only amorphous mineral
3 | 25 ({C16 alkyl}-AAAAGGGEIKVAV-OH; SMILES CCCCCCCCCCCCCCCCN[C@@H](C)C(=O)N[C@@H](C)C(=O)N[C@@H](C)C(=O)N[C@@H](C)C(=O)NCC(=O)NCC(=O)NCC(=O)N[C@@H](CCC(=O)O)C(=O)N[C@H](C(=O)N[C@@H](CCCCN)C(=O)N[C@H](C(=O)N[C@@H](C)C(=O)N[C@H](C(=O)O)C(C)C)C(C)C)[C@@H](C)CC) [compound 25] | – | – | – | – | – | pH below which the PA precipitates on slow acidification (HCl) ([3]; 0.1 mg/ml solution): < 4.5 pH; state at neutral pH ([3]; 0.1 mg/ml solution): completely dissolved; state on increasing the solution's pH (KOH) ([3]; 0.1 mg/ml solution): completely dissolved
4 | 27 (AAAAGGG[pS]RGD-OH; not fully specified (N-terminus); printed as Alkyl-A4G3S(P)RGD-COOH) [compound 27] | – | gel | gel | gel | gel | gelation in the presence of KCl or NaCl [1]: did not gel; gelation properties, KCl [1, 5]: Liquid; gelation properties, Cu(ClO4)2 [1]: gel; minimal amount of CA+2 and Gd+3 ions needed for the gelation [1]: about equal to the number of PA molecules in solution; gel formation on mixing with equal amounts of cell culture media [4]: gel formation was observed; gel formation on mixing with PBS and Hank's solutions depleted by Ca2+ and Mg2+ [4]: no gel formation was observed
5 | 24 ({C16 alkyl}-AAAAGGGKYIGSR-NH2; SMILES CCCCCCCCCCCCCCCCN[C@@H](C)C(=O)N[C@@H](C)C(=O)N[C@@H](C)C(=O)N[C@@H](C)C(=O)NCC(=O)NCC(=O)NCC(=O)N[C@@H](CCCCN)C(=O)N[C@@H](Cc1ccc(O)cc1)C(=O)N[C@H](C(=O)NCC(=O)N[C@@H](CO)C(=O)N[C@@H](CCCNC(=N)N)C(N)=O)[C@@H](C)CC) [compound 24] | – | – | – | – | – | pH above which a precipitate forms on slow addition of base ([3]; 0.1 mg/ml solution): above 9.5 pH; state at neutral pH ([3]; 0.1 mg/ml solution): completely dissolved; appearance of the solution ([3]; 10 mg/ml, neutral pH): cloudy and viscous
6 | 31 ({C16 alkyl}-AAAAGGGERGDS-OH; SMILES CCCCCCCCCCCCCCCCN[C@@H](C)C(=O)N[C@@H](C)C(=O)N[C@@H](C)C(=O)N[C@@H](C)C(=O)NCC(=O)NCC(=O)NCC(=O)N[C@@H](CCC(=O)O)C(=O)N[C@@H](CCCNC(=N)N)C(=O)NCC(=O)N[C@@H](CC(=O)O)C(=O)N[C@@H](CO)C(=O)O) [compound 31] | liquid | – | – | gel | gel | –
7 | 33 ({C16 alkyl}-CCCCGGGKIKVAV-NH2; cysteine pairing not given here) [compound 33] | – | – | – | – | – | result of addition of 200 mM of KCl [1]: formation of a self-supporting gel; gel formation on mixing with equal amounts of cell culture media [4]: gel formation was observed
8 | 20 ({C16 alkyl}-CCCCGGGSRGD-OH; cysteine pairing not given here) [compound 20] | – | – | – | – | – | gelation on dropwise addition of CaCl2 ([1]; 100 μl of 10 mg/ml PA, 1M CaCl2 (pH 6) in 1 μl increments): immediate
9 | 30 ({C16 alkyl}-AAAGGEQS-OH; SMILES CCCCCCCCCCCCCCCCN[C@@H](C)C(=O)N[C@@H](C)C(=O)N[C@@H](C)C(=O)NCC(=O)NCC(=O)N[C@@H](CCC(=O)O)C(=O)N[C@@H](CCC(N)=O)C(=O)N[C@@H](CO)C(=O)O) [compound 30] | Liquid | gel | gel | gel | gel | gelation properties, Cu(ClO4)2 [1]: gel; gelation properties, MgCl2 [1]: gel
10 | 28 (AAAAGGG[pS]KGE-OH; not fully specified (N-terminus)) [compound 28] | Liquid | gel | gel | gel | gel | gel formation on mixing with equal amounts of cell culture media [4]: gel formation was observed; gel formation on mixing with PBS and Hank's solutions depleted by Ca2+ and Mg2+ [4]: no gel formation was observed
11 | 26 (CCCCGGG[pS]RGD-OH; not fully specified (N-terminus); cysteine pairing not given here) [compound 26] | – | gel | gel | gel | gel | gelation in the presence of KCl or NaCl [1]: did not gel; gelation properties, KCl [1, 5]: Liquid; minimal amount of CA+2 and Gd+3 ions needed for the gelation [1]: about equal to the number of PA molecules in solution
12 | 21 ({C16 alkyl}-CCCCGGGEIKVAV-OH; cysteine pairing not given here) [compound 21] | – | – | – | – | – | appearance of the solution ([3]; 5 mg/ml in water at pH 7): slightly cloudy
13 | 22 ({C16 alkyl}-CCCCGGGKIKVAV-NH2; cysteine pairing not given here) [compound 22] | – | – | – | – | – | appearance of the solution ([3]; 5 mg/ml in water at pH 7): slightly cloudy; appearance of the solution ([3]; 10 mg/ml, neutral pH): cloudy and viscous
14 | 32 (CCCCGGGEIKVAV-OH; not fully specified (N-terminus); cysteine pairing not given here) [compound 32] | gel | – | gel | gel | gel | result of addition of 200 mM of KCl [1]: formation of a self-supporting gel; gel formation in the presence of KCl ([1]; ratio 1 molecule of PA per 20 molecules of KCl): formed gels; gelation properties, MgCl2 [1]: gel
